Here are results for one substance from patent publication US6897294.

For this test, the target named is flt(1,2,3): flt-1 Ig-like domains 1, 2 and 3 only fused to the Fc of IgG (human) [IgG part: P01857]. Briefly: unlabeled VEGF titrated against 125I-VEGF165 binding to 1 ng immunoreactive flt(1, 2, 3) on anti-Fc plates; 4-parameter fit (FIG. 5).

Sequence of vascular endothelial growth factor VEGF165 (P15692 other isoform, or with tags, fused parts or gaps limits assumed): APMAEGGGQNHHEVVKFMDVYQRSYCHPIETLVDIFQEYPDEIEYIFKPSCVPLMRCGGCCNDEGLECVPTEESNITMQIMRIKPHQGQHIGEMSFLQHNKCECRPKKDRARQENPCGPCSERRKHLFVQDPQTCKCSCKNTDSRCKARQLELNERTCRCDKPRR

For the substance “vascular endothelial growth factor VEGF165 (from UniProt P15692 27-191) (ligand)”, the IC50 was found to be 1.34 ng/mL.

For orientation: IC50 means the point on the concentration scale where inhibition reaches its midpoint. A lower IC50 goes with greater potency in that assay.
